Tests used:
[1] = molecular target: human PD-1 expressed on cells (human, UniProt Q15116 25-288); assay: cell-based or functional assay
[2] = molecular target: T1, 重组蛋白PD-1-Fc (GenScript, Z03370): human PD-1 extracellular domain fused to human IgG1 Fc (human, UniProt Q15116 25-170); assay: indirect ELISA, PD-1-Fc coated at 0.5 μg/ml
T1 construct: extracellular domain; Bought reagent (GenScript Z03370); also called PD-1-Fc重组蛋白; PD-1-Fc融合蛋白; not shown: human IgG1 Fc segment

[3] = molecular target: T2, 重组人PD-1蛋白 (recombinant human PD-1 protein) (human, UniProt Q15116 25-167, limits assumed); assay: competition ELISA: human PD-1 coated, biotin-PD-L1-Fc 0.15 μg/ml as competitor
T2 construct: also called 重组蛋白PD-1
T2 sequence (Q15116 25-167 limits assumed): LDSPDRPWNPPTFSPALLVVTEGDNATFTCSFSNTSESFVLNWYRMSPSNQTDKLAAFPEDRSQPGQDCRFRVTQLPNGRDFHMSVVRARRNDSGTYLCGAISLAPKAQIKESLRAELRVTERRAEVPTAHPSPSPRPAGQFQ

Chain of human PD-1 expressed on cells (Q15116 25-288): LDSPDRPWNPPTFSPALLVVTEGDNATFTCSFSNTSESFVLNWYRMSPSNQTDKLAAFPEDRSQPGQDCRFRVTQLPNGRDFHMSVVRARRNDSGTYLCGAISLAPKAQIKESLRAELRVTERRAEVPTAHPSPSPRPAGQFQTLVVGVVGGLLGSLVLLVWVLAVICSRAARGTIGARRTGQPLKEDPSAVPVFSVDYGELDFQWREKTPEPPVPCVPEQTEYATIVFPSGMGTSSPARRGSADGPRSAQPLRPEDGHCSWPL
T1 sequence (Q15116 25-170 limits assumed, one chain of several): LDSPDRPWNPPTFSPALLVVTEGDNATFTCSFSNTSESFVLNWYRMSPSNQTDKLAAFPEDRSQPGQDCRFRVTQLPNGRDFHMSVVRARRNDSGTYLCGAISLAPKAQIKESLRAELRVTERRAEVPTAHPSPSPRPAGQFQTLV

IL-2 secretion, mixed lymphocyte reaction (CD4+ T cells + allogeneic dendritic cells), EC50 [1]	RLU, NFAT-RE reporter effector cells (PD-1) co-cultured with PD-L1 target cells, EC50 [1]	EC50 [2]	IC50 [3]	Binder
0.929 μg/ml	1.01 µg/mL	0.00465 µg/mL	0.429 µg/mL	2E5E4D11 (antibody, V domains shown, I took the two as the same clone (likely a misprint); also called 2E5E4E11) VH: EVKLVESGGVLVQPGGSLKLSCAASGFTFSSYTMSWVRQTPEKRLEWVAYISGGGGDTYYPDTVKGRFTISRDNAKNTLYLQMNSLKSGDTAMYYCARHGYDAACFAYWGQGTLVTVSA VL: DIVMTQSHKFMSTSVGDRVSFTCKASQDVNTAVAWYQQKPGQSPKLLIYWASTRHTGVPDRFTGSGSGTDYTLTISSVQAEDLALYYCQQHYSIPWTVGGGTKLEIK
1.12 μg/ml	1.42 µg/mL	0.00872 µg/mL	0.366 µg/mL	154G5A5B7 (antibody, V domains shown) VH: QVQLKESGPGLVAPSQSLSITCTVSGFSLTVYGVNWVRQPPGKGLEWLGMIWGDGTTDYNSALKSRLIINKDNSKSQVFLKMNSLQTDDTARYYCARDDYGTFLYWGQGTLVTVSA VL: DIVMSQSPSSLAVSAGEKVTMSCKSSQSLLNSRTRKNYLAWYQQKPGQSPKLLIFWASTRESGVPDRFTGSVSGTDFTLTISSVQAEDLAVYYCKQSYTLRTFGGGTKLEIK
0.064 μg/ml	1.13 µg/mL	0.00681 µg/mL	0.493 µg/mL	1H10C4D4 (antibody, V domains shown, Detected with goat anti-mouse IgG) VH: EVKLVESGGGLVKPGGSLKLSCAASGFTFSSYDMSWVRQTPDKRLEWVATISGGGSYTYYPDSVKGRFTISRDNAKNNLYLQMSSLRSEDTALYYCGSPYGKYGMEYWGQGTSVTVSS VL: DIVMTQSHKFMSTSVGDRVSITCKASQDVGSVVAWYQQKPGQSPKLLIYWASTRHTGVPDRFTGSGSGTDFTLTISNVQSEDLADYFCQQYSSYPLTFGSGTKLELK

Reference: patent publication CN108203464A (GENSCRIPT NANJING CO LTD, dated 2018)
